Experimental data: patent US20070020327A1
Read-outs that look alike come from different tables or passages of the source.

Key:
[1] = molecular target: HLA-A*0201 (purified HLA class I molecule) (human); assay: competition with 125I-labelled standard peptide for purified HLA, gel filtration
[2] = molecular target: HLA-A*0201 (human); assay: competitive inhibition of 125I-labelled standard peptide binding to purified HLA, gel filtration
[3] = molecular target: HLA-A*0203 (human); assay: competition with 125I-labelled standard peptide for purified HLA, gel filtration; details: for binding affinity ratio: scale: ratio
[4] = molecular target: HLA-A*0202 (human); assay: as above
[5] = molecular target: HLA-A*0201 (human); assay: as above; details: for binding affinity ratio: scale: ratio
[6] = molecular target: HLA-A*0206 (human); assay: as above
[7] = remark: other sources report otherwise
[8] = remark: other sources report otherwise, scale: ratio

B1: PSA peptide LVHPQWVL (position 50, 8 amino acids) (peptide)
peptide: LVHPQWVL
modifications: not checked
Work on B1 yielded a binding affinity ratio (IC50 of standard peptide / IC50 of test peptide) [1] of 0.0001.

B2: … (PSM, position 199) (peptide)
peptide: KIVIARYGKV
modifications: not checked
Binder B2 has a binding affinity ratio (ratio to standard peptide) [2] of 0.0002.

B3: … (PSM, position 122) (peptide)
peptide: KTHPNYISI
modifications: not checked
Work on B3 yielded a binding affinity ratio (ratio to standard peptide) [2] of 0.0002.

B4: peptide 1419.24 (PSA.166.V10) (peptide)
peptide: KLQCVDLHVV
modifications: not checked
For B4, the IC50 [3, 7] was 9.5 nM.

B5: Kallikrein (hK2) peptide … (position 54, 9 amino acids) (peptide)
peptide: LVHPQWVLT
modifications: not checked
Work on B5 yielded a binding affinity ratio (IC50 of standard peptide / IC50 of test peptide) [1] of 0.0001.

B6: PAP peptide … (position 298, 10 amino acids) (peptide)
peptide: MALDVYNGLL
modifications: not checked
With B6 the binding affinity ratio (IC50 of standard peptide / IC50 of test peptide) [1] was 0.001.

B7: PSA peptide … (position 50, 11 amino acids) (peptide)
peptide: LVHPQWVLTAA
modifications: not checked
In the case of B7, the binding affinity ratio (IC50 of standard peptide / IC50 of test peptide) [1] is reported as 0.0001.

B8: peptide 1129.08 (PSM.711) (peptide)
peptide: ALFDIESKV
modifications: not checked
In the case of B8, the IC50 [4, 7] is reported as 0.7 nM.

B9: PSM peptide … (position 3, 9 amino acids) (peptide)
peptide: NLLHETDSA
modifications: not checked
For B9, the binding affinity ratio (IC50 of standard peptide / IC50 of test peptide) [1] was 0.0001.

B10: Kallikrein 102 … (peptide)
peptide: NMSLLKHQSL
modifications: not checked
In the case of B10, the binding affinity ratio (IC50 of standard peptide / IC50 of test peptide) [3, 7] is reported as 0.04.

B11: Kallikrein (hK2) peptide … (position 54, 11 amino acids) (peptide)
peptide: LVHPQWVLTAA
modifications: not checked
With B11 the binding affinity ratio (IC50 of standard peptide / IC50 of test peptide) [1] was 0.0001.

B12: peptide 1389.20 (PSM.27.V9) (peptide)
peptide: VLAGGFFLV
modifications: not checked
Work on B12 yielded an IC50 [5] of 26 nM, an IC50 [6] of 57 nM and an IC50 [4] of 0.4 nM. For the same binder, the IC50 [3] was 5 nM.

B13: Kallikrein (hK2) peptide … (position 4, 9 amino acids) (peptide)
peptide: LVLSIALSV
modifications: not checked
B13 was tested, and the binding affinity ratio (IC50 of standard peptide / IC50 of test peptide) [1, 7] was 0.002.

B14: Kallikrein 129 … (peptide)
peptide: PAKITDVVKV
modifications: not checked
B14 was tested, and the binding affinity ratio (IC50 of standard peptide / IC50 of test peptide) [6, 7] was 0.0006 and the binding affinity ratio (IC50 of standard peptide / IC50 of test peptide) [4, 7] was 0.01.

B15: … (PSM, position 122) (peptide)
peptide: KTHPNYISII
modifications: not checked
B15 gave a binding affinity ratio (ratio to standard peptide) [2] of 0.0001.

B16: peptide 1126.10 (PSM.27) (peptide)
peptide: VLAGGFFLL
modifications: not checked
With B16 the IC50 [4, 7] was 0.2 nM.

B17: Kallikrein (hK2) peptide LVHPQWVL (position 54, 8 amino acids) (peptide)
peptide: LVHPQWVL
modifications: not checked
B17 gave a binding affinity ratio (IC50 of standard peptide / IC50 of test peptide) [1] of 0.0001.

B18: … (Kallikrein, position 131) (peptide)
peptide: KITDVVKVLGL
modifications: not checked
B18 gave a binding affinity ratio (ratio to standard peptide) [2, 7] of 0.0002.

B19: PSA 239 peptide … (peptide)
peptide: YTKVVHYRKWI
modifications: not checked
With B19 the binding affinity ratio (IC50 of the standard peptide / IC50 of the test peptide) [5] was 0.0001, the binding affinity ratio (IC50 of the standard peptide / IC50 of the test peptide) [6] was -0.0001 and the binding affinity ratio (IC50 of the standard peptide / IC50 of the test peptide) [4] was -0.0001.

B20: … (PSM, position 193) (peptide)
peptide: KINCSGKIVI
modifications: not checked
Binder B20 has a binding affinity ratio (ratio to standard peptide) [2] of 0.0001.

B21: PSA peptide … (position 50, 10 amino acids) (peptide)
peptide: LVHPQWVLTA
modifications: not checked
B21 gave a binding affinity ratio (IC50 of standard peptide / IC50 of test peptide) [1] of 0.0001.

B22: PSM peptide … (position 473, 9 amino acids) (peptide)
peptide: LVHNLTKEL
modifications: not checked
B22 showed a binding affinity ratio (IC50 of standard peptide / IC50 of test peptide) [1] of 0.0001.

B23: peptide 1126.14 (PSM.469) (peptide)
peptide: LMYSLVHNL
modifications: not checked
B23 showed an IC50 [5] of 64 nM and an IC50 [4] of 0.4 nM.

B24: Kallikrein 153 peptide YASGWGSI (peptide)
peptide: YASGWGSI
modifications: not checked
B24 showed a binding affinity ratio (IC50 of the standard peptide / IC50 of the test peptide) [5] of -0.0001, a binding affinity ratio (IC50 of the standard peptide / IC50 of the test peptide) [6] of 0.0003 and a binding affinity ratio (IC50 of the standard peptide / IC50 of the test peptide) [4] of 0.0009. For the same binder, the binding affinity ratio (IC50 of the standard peptide / IC50 of the test peptide) [3] was 0.0003.

B25: PSA peptide … (position 118, 11 amino acids) (peptide)
peptide: MLLRLSEPAEL
modifications: not checked
For B25, the binding affinity ratio (IC50 of standard peptide / IC50 of test peptide) [1] was 0.14.

B26: PAP peptide … (position 232, 10 amino acids) (peptide)
peptide: MTKLRELSEL
modifications: not checked
B26 showed a binding affinity ratio (IC50 of standard peptide / IC50 of test peptide) [1] of 0.0002.

B27: Kallikrein (hK2) peptide … (position 54, 10 amino acids) (peptide)
peptide: LVHPQWVLTA
modifications: not checked
Work on B27 yielded a binding affinity ratio (IC50 of standard peptide / IC50 of test peptide) [1] of 0.0001.

B28: … (Kallikrein, position 137, 11 amino acids) (peptide)
peptide: KVLGLPTQEPA
modifications: not checked
B28 gave a binding affinity ratio [5] of 0.0001 and a binding affinity ratio [3] of 0.0009.

B29: PSM peptide … (position 260, 10 amino acids) (peptide)
peptide: NLNGAGDPLT
modifications: not checked
B29 gave a binding affinity ratio (IC50 of standard peptide / IC50 of test peptide) [1] of 0.0002.

B30: Kallikrein 129 … (peptide)
peptide: PAKITDVVKVL
modifications: not checked
B30 gave a binding affinity ratio (IC50 of standard peptide / IC50 of test peptide) [5] of 0.0002, a binding affinity ratio (IC50 of standard peptide / IC50 of test peptide) [6] of -0.0001 and a binding affinity ratio (IC50 of standard peptide / IC50 of test peptide) [4] of 0.0006. For the same binder, the binding affinity ratio (IC50 of standard peptide / IC50 of test peptide) [3] was 0.0017.

B31: PSA peptide … (position 50, 9 amino acids) (peptide)
peptide: LVHPQWVLT
modifications: not checked
In the case of B31, the binding affinity ratio (IC50 of standard peptide / IC50 of test peptide) [1] is reported as 0.0001.

B32: peptide 1126.01 (PSM.663) (peptide)
peptide: MMNDQLMFL
modifications: not checked
With B32 the IC50 [6] was 7.6 nM, the IC50 [4] was 0.8 nM and the IC50 [3] was 1.7 nM.

B33: … (PSM, position 623) (peptide)
peptide: KTYSVSFDSL
modifications: not checked
B33 gave a binding affinity ratio (ratio to standard peptide) [2] of 0.0002.

B34: … (PAP, position 234) (peptide)
peptide: KLRELSELSL
modifications: not checked
In the case of B34, the binding affinity ratio (ratio to standard peptide) [2] is reported as 0.004.

B35: PSM peptide … (position 216, 10 amino acids) (peptide)
peptide: NAQLAGAKGV
modifications: not checked
In the case of B35, the binding affinity ratio (IC50 of standard peptide / IC50 of test peptide) [1] is reported as 0.0002.

B36: Kallikrein 243 peptide … (peptide)
peptide: YTKVVHYRKWI
modifications: not checked
Work on B36 yielded a binding affinity ratio (IC50 of the standard peptide / IC50 of the test peptide) [5] of 0.0001, a binding affinity ratio (IC50 of the standard peptide / IC50 of the test peptide) [6] of -0.0001 and a binding affinity ratio (IC50 of the standard peptide / IC50 of the test peptide) [4] of -0.0001.

B37: PSA peptide … (position 203, 11 amino acids) (peptide)
peptide: STCSGDSGGPL
modifications: not checked
With B37 the binding affinity ratio [5, 7] was 0.0005, the binding affinity ratio [6, 8] was 0.0002 and the binding affinity ratio [3, 7] was 0.0092.

B38: peptide 1419.27 (PSA.3.V11) (peptide)
peptide: FLTLSVTWIGV
modifications: not checked
B38 gave an IC50 [5] of 6.8 nM, an IC50 [6] of 65 nM and an IC50 [4] of 3 nM. It also gave an IC50 [3] of 18 nM.

B39: Kallikrein (hK2) peptide … (position 11, 11 amino acids) (peptide)
peptide: SVGCTGAVPLI
modifications: not checked
B39 showed a binding affinity ratio [5, 7] of 0.01 and a binding affinity ratio [4, 8] of 0.001.

B40: PSA 149 peptide YASGWGSI (peptide)
peptide: YASGWGSI
modifications: not checked
For B40, the binding affinity ratio (IC50 of the standard peptide / IC50 of the test peptide) [5] was -0.0001, the binding affinity ratio (IC50 of the standard peptide / IC50 of the test peptide) [6] was 0.0003 and the binding affinity ratio (IC50 of the standard peptide / IC50 of the test peptide) [4] was 0.0009. For the same binder, the binding affinity ratio (IC50 of the standard peptide / IC50 of the test peptide) [3] was 0.0003.

B41: … (PSM, position 304) (peptide)
peptide: KLLEKMGGSA
modifications: not checked
In the case of B41, the binding affinity ratio (ratio to standard peptide) [2] is reported as 0.0003.

B42: … (PAP, position 282) (peptide)
peptide: KLIMYSAHDT
modifications: not checked
Work on B42 yielded a binding affinity ratio (ratio to standard peptide) [2] of 0.0002.
